Results taken from US20160320413A1 (D GEN, published 2016).

Target: abnormal human PrP (disease associated PrP, including PrPSc) from vCJD brain homogenate, blood or ur (human, UniProt P04156 23-230)

B1: ICSM18 anti-PrP antibody (D-Gen Ltd, product code 0130-01810), biotinylated (antibody, V domains shown)
VH: EVQLQQSGPELVKPGSSVKISCKASRNTFTDYNLDWVKQSHGKTLEWIGNVYPNNGVTGYNQKFRGKATLTVDKSSSTAYMELHSLTSEDSAVYYCALYYYDVSYWGQGTLVTVSA
VL: QIVLTQSPAIMSASPGEKVTMTCSASSSVSYMHWYQQKSGTSPKRWIYDTSKLASGVPARFSGSGSGTSYSLTISSMEAEDAATYFCHQWRSNPYTFGGGTKLEIKR
How did the “ratio relative to cut off” value turn out when B1 was run?
Its value is 1.17.
